Data from patent publication US6932973B2, “Peptides which stimulate the expression of the cytokines of inflammation and promote tissue regeneration” (Centre National de la Recherche Scientifique—CNRS, priority 1999, dated 2005).
“Also recorded” adds a separate entry of the source. Read-outs that look alike come from different tables or passages of the source.

What was measured:
HUVEC cells = test: Mitogenic activity on HUVEC cells (cell counting); format: cell-based; details: wells coated with 100 ng/ml, 72 hours of culture, triplicate
Description: The cells used were HUVEC cells (Clonetics) used between passages 1 to 5. Each of the wells of a 48-well culture plate (Costar) was incubated for 1 night at 4° C. with a solution of HARP (100 ng/ml), of purified HARP peptide (100 ng/ml) or solely the negative control buffer. After rinsing the wells with a PBS solution, the cells were inoculated at the rate of 2×10^4 cells per cm^2 in the DMEM culture medium containing 2% of fetal calf serum. Each quantitative determination was performed in triplicate.
Induction of cellular proliferation was assessed by counting the cells after 72 hours of culture.

[1] = tested on: human mononucleated cells of the peripheral blood (PBMCs); test: Incorporation of tritiated thymidine in PBMCs (proliferation); format: cell-based; details: for activation response of PBMCs compared to the HARP protein: 1 ng/ml HARP, 1 μg/ml peptides (FIG. 6)
Description: The PBMCs were cultured for 7 days in RPMI culture medium containing 10% fetal calf serum in the absence of or in the presence of 1 ng/ml HARP protein or 1 μg/ml of peptides 1 or 2. The incorporation of tritiated thymidine was determined as described above.
Human mononucleated cells originating from different healthy donors were isolated from peripheral blood after centrifugation on a Ficoll-Hypaque pad (Pharmacia Biotech) in accordance with the manufacturer's instructions. The cells were washed then cultured in RPMI 1640 medium supplemented by 10% heat-inactivated fetal calf serum (56° C., 30 min), 100 units/ml of penicillin and 100 μg/ml of streptomycin. The cells were inoculated at the rate of 10^6 cells per ml in a 96-well (round bottoms) culture plate (Costar). They were cultured for 7 days in the presence or not of human recombinant HARP protein produced in E. coli at the concentration of 100 ng/ml. In the last 18 hours of culture, 1 μCi of tritiated thymidine was added to each of the wells. The radioactivity incorporated in the cell nuclei was then measured using a scintillation counter.

IL-6 = test: Expression of IL-6 by PBMCs (ELISA); format: cell-based, human
Description: (§1) Quantitative determination of these cytokines was performed using an ELISA test from R&D.
Quantitative determination of these cytokines was performed after 7 days of incubation using an ELISA test from R&D.
(§2) The cells were isolated from peripheral blood of normal subjects (blood donors) and collected in a Vacutainer tube containing EDTA. Mononucleated cells were separated by ficoll gradient, counted and adjusted to 10^6 per ml. The cells were incubated for 3 or 7 days at 37° C. in humid atmosphere with 5% CO2 in the presence of variable concentrations of HARP ranging from 1 to 1000 ng/ml or other peptides which are mentioned in the legends of the figures.

soleus muscle = format: in vivo, Wistar rat; details: 1 μg injected in 50 μl into crushed rat soleus, 4 days
[2] = tested on: cytokines of inflammation (TNF-alpha, IL-1, IL-6); test: Expression/production of the cytokines of inflammation; format: cell-based, human
[3] = tested on: PBMCs treated by tetanus toxin
[4] = tested on: PBMCs treated by an anti-CD3
NIH 3T3 cells = details: read-out: Kd of strong affinity HARP binding sites; cited from earlier work
syndecan-3 = syndecan-3 (Rattus norvegicus, UniProt P33671); details: read-out: apparent Kd; cited from earlier work
IL-1β = test: Expression of IL-1 by PBMCs (ELISA); format: cell-based, human; details: HARP 1 to 1000 ng/ml, 3 or 7 days
Description: as §1, §2

TNF-α = test: Expression of TNF-α by PBMCs (ELISA); format: cell-based, human; details: HARP 1 to 1000 ng/ml, 3 or 7 days
Description: as §1, §2

phosphacan = phosphacan (Rattus norvegicus, UniProt Q62656); details: cited from earlier work
IL-2 = IL-2 levels after incubation of PBMCs with HARP; format: cell-based, human; details: after incubation of PBMCs with HARP factor
[5] = tested on: lymphoid cells (PBMC culture); test: Determination of the amplified lymphoid cell population in a PBMC culture; format: cell-based, human; details: HARP 1 μg/ml, PBMC culture 5 days
Description: as §2, with “5” for “3 or 7”, “of” for “of variable concentrations of”, “HARP” for “HARP ranging from 1 to 1000 ng/ml”, “peptides at concentrations” for “peptides”, “each” for “the legends”, “Examples described.” for “figures.”
Table II presents the effects of the HARP molecule tested at a concentration of 1 μg/ml on the proliferation of lymphoid cells.

[6] = peptides, 7 days of incubation (FIG. 10)
[7] = added to PBMCs, result not shown
[8] = 7 days, anti-CD3 1/100, HARP 1 ng/ml

Chain of phosphacan (Q62656 25-1616 isoform Q62656-3 limits assumed): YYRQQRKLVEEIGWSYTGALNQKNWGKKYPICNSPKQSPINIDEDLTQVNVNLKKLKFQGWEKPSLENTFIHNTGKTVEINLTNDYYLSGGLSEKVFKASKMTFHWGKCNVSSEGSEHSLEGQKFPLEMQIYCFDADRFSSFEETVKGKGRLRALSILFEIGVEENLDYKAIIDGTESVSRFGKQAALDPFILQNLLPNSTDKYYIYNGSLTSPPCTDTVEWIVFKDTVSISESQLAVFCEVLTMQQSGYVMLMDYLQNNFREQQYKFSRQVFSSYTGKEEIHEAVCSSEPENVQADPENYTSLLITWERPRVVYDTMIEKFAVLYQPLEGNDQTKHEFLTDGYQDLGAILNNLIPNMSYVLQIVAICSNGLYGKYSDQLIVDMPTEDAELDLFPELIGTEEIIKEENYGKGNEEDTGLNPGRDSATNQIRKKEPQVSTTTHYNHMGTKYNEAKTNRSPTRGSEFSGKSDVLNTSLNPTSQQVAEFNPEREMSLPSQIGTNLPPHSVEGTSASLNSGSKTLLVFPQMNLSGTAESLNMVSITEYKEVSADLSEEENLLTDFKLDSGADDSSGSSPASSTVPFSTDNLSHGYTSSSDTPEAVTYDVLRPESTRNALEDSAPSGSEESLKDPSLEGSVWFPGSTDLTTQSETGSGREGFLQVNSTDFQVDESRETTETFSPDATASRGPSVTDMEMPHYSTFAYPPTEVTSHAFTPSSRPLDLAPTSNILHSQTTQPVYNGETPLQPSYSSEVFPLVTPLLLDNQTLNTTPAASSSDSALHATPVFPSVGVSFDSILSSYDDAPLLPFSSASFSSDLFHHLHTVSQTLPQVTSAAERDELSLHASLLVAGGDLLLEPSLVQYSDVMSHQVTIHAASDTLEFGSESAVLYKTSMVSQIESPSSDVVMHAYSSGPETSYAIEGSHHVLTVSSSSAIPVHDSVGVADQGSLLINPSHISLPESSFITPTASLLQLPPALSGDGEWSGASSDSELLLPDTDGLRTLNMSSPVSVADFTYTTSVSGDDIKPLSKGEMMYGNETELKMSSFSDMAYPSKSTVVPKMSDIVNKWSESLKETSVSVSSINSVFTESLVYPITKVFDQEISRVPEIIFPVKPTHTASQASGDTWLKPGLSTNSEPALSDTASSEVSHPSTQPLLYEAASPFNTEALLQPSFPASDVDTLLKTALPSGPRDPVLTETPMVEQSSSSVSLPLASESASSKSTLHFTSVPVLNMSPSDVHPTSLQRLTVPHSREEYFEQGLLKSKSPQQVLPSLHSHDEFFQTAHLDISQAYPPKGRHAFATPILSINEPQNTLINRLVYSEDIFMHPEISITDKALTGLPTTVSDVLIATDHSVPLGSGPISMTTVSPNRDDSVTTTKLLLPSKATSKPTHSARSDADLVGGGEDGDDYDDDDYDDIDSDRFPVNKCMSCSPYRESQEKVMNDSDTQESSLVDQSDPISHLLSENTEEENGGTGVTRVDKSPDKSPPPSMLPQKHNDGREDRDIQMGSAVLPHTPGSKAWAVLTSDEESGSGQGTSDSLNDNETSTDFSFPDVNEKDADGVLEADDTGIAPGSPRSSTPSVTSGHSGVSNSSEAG
Chain of syndecan-3 (P33671 45-442): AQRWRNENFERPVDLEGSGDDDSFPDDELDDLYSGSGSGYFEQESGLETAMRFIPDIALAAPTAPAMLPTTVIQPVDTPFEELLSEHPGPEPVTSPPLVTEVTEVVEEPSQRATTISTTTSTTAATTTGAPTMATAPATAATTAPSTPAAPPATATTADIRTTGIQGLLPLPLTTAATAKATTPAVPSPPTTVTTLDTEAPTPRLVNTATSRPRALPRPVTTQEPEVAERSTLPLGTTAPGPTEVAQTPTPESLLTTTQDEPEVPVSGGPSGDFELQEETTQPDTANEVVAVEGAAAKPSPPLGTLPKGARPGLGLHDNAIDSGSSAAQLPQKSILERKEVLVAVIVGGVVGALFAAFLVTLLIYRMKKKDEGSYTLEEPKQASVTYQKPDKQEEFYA

Molecule: GKKEKPEKKVKKSD [HARP peptide, N terminal peptide (amino acids 1-14) of human HARP obtained by recombination in a eukaryote expression system]
- Number of cells (HUVEC cells): 12,000 ± 14,000

Molecule: NH2-AEAGKKEKPEKKVKKSDCGEW-COOH (H-AEAGKKEKPEKKVKKSDCGEW-OH) [Peptide 1]
- activation response of PBMCs compared to the HARP protein ([1]; 7 days): close to half that of HARP
- activation response of PBMCs compared to the control ([1]; 7 days, 1 μg/ml peptide (FIG. 6)): more than two times higher
- expression of IL-6 (IL-6; [6]): capable of stimulating the expression of IL-6
- number of mononucleated cells in treated muscle versus peptide 2 or PBS (soleus muscle): much higher

Molecule: NH2-AESKKKKKEGKKQEKMLD-COOH (H-AESKKKKKEGKKQEKMLD-OH) [Peptide 2, peptide corresponding to the terminal COOH part of HARP; 18 amino acids]
- activation response of PBMCs compared to the HARP protein ([1]; 7 days): close to two times higher
- expression of IL-6 (IL-6; [6]): capable of stimulating the expression of IL-6

Molecule: angiogenin: molecule presenting a homologous protein domain [reference compound]
- expression of the inflammatory cytokines [2, 7]: Augmentation of the expression

Molecule: tetanus toxin [reference compound]
- incorporated tritiated thymidine [3]: 43,000±500 cpm
- stimulation of incorporation of tritiated thymidine in relation to the control [3]: 71 times

B1: MK: protein that exhibits 50% homology in amino acids with HARP (protein, UniProt P21741 21-143, looked up)
Midkine: VAKKKDKVKKGGPGSECAEWAWGPCTPSSKDCGVGFREGTCGAQTQRIRCRVPCNWKKEFGADCKYKFENWGACDGGTGTKVRQGTLKKARYNAQCQETIRVTKPCTPKTKAKAKAKKGKGKD
- stimulation of tritiated thymidine incorporation in PBMCs ([1]; MK 0.1 to 500 ng/ml): no induction; also recorded: No stimulation

B2: HARP: angiogenic growth factor; human recombinant HARP protein produced in E. coli (protein, UniProt P21246 33-168, looked up)
Pleiotrophin: GKKEKPEKKVKKSDCGEWQWSVCVPTSGDCGLGTREGTRTGAECKQTMKTQRCKIPCNWKKQFGAECKYQFQAWGECDLNTALKTRTGSLKRALHNAECQKTVTISKPCGKLTKPKPQAESKKKKKEGKKQEKMLD
- concentration at which active on the proliferation of lymphocytes [1]: ~10 pM
- increase in the number of cells in relation to the untreated control ([1]; HARP 100 ng/ml, experiment no. 7): 2.9 times
- HARP concentration at which maximum effect is attained ([1]; dose-response 0.1 to 500 ng/ml): 1 ng/mL
- Number of cells (HUVEC cells): 129,000 ± 26,000
- cell mortality [3]: high cell mortality
- incorporated tritiated thymidine ([3]; 7 days): 3500±200 cpm
- stimulation of incorporation of tritiated thymidine in relation to the control ([3]; 7 days): 5.8 times
- incorporated tritiated thymidine [4, 8]: 3500 cpm
- stimulation of incorporation of tritiated thymidine in relation to the control [4, 8]: 5.8 times
- incorporation of thymidine ([4]; HARP 10 and 100 ng/ml in the presence of anti-CD3): a weaker and a very low incorporation
- cellular mortality ([4]; HARP alone at 10 and 100 ng/ml): not seen
- Kd (NIH 3T3 cells): 0.6 nM
- Kd (syndecan-3): 0.8 nM
- expression of IL-1β (IL-1β): capable of inducing in a dose-dependent manner
- expression of IL-6 (IL-6; HARP 1 to 1000 ng/ml, 3 or 7 days): capable of inducing in a dose-dependent manner
- expression of TNF-α (TNF-α): capable of inducing in a dose-dependent manner
- cell death (HIV; HARP 100 ng/ml, PBMCs from an AIDS patient): noteworthy cell death
- HARP concentration at which production of viral antigen p24 is maximal (HIV; PBMCs from an AIDS patient (CD4<200/mm^3), 3 days, HARP 0.1-100 ng/ml): 1 ng/mL
- Kd (phosphacan; read-out: Kd, binding sites of strong affinity): 0.25 nM
- Kd (phosphacan; read-out: Kd, binding sites of weak affinity): 3 nM
- IL-2 levels (IL-2): no increase
- expression of the inflammatory cytokines ([2]; HARP molecule denatured): No expression
- stimulation of the production of cytokines of inflammation ([2]; in vitro and in vivo): more than 100 times
- CCD2 positive cells [5]: 95%
- CCD4+ CD45RA+ cells [5]: 15%
- CCD4+ CD45RO+ cells [5]: 49%
- CCD4 positive cells [5]: 68%
- CCD8 positive cells [5]: 22%
- CCD16/56 positive cells [5]: 18%
- CCD19 positive cells [5]: 4%
- CCD25 positive cells [5]: 47%
- CCD45RA positive cells [5]: 34%
- CCD45RO positive cells [5]: 64%
- Variation of CCD4+ CD45RA+ versus control [5]: −31%
- Variation of CCD4+ CD45RO+ versus control [5]: +133%
- Variation of CCD45RO versus control [5]: +113%
- RA/RO (CCD4+ CD45RA+ / CCD4+ CD45RO+) ([5]; CD4+ cells): 0.3 ratio
- RA/RO (CCD45RA / CCD45RO) ([5]; all cells): 0.5 ratio

B3: tat protein: molecule presenting a homologous protein domain (protein, UniProt P04608 1-86, looked up)
Protein Tat: MEPVDPRLEPWKHPGSQPKTACTNCYCKKCCFHCQVCFITKALGISYGRKKRRQRRRAHQNSQTHQASLSKQPTSQPRGDPTGPKE
- expression of the inflammatory cytokines [2, 7]: Augmentation of the expression
